# Target: cytochrome bd from Escherichia coli, His6-tagged (His6-CydABX) (E. coli) (UniProt P0ABJ9)
# Test: SEC; 500 ug purified cytochrome bd on Superose 6 10/300 in 50 mM MOPS, 100 mM NaCl, 0.1% LM, pH 7; UV 280 nm, refractive index and right angle light scattering monitored
substance,measurement,value
"cytochrome bd from Escherichia coli, His6-tagged (His6-CydABX) (from UniProt P0ABJ9 1-522; P0ABK2 1-379) (complex)",stoichiometry N,4

# From article PMC4899803
